We go through 1 molecule from US7718410B2, “In vivo incorporation of alkynyl amino acids into proteins in eubacteria” (The Scripps Research Institute, priority 2004, dated 2010).

The assay deals with E. coli. As to the kind of experiment: Chloramphenicol resistance conferred by the synthetase (amber suppression in the CAT gene). Type of assay: cell-based. The procedure: Following mutagenesis, the pool of synthetases was then passed through positive and negative rounds of selection. The positive selection is based on suppression of an amber stop codon at a permissive site (Asp112) in the chloramphenicol acetyltransferase (CAT) gene. When E. coli cells harboring the MjTyrRS mutant library, the mutated CAT gene and a coexpressed Mj amber suppressor tRNACUA were grown on minimal media in the presence of pPRO-Phe (1 mM) and chloramphenicol (80 μg/mL), the only surviving cells are those cells that contain a mutant synthetase that aminoacylates the tRNACUA with either an endogenous amino acid or pPRO-Phe. The synthetase library genes were then transformed into cells containing a mutated gene encoding the toxic protein barnase, which has three amber mutations at permissive sites (Gln2, Asp44, Gly65). The vector carrying the barnase reporter also contained the suppressor tRNA. Growth of these cells in the absence of pPRO-Phe selected against synthetases capable of accepting endogenous amino acids as a substrate. After three rounds of selection, 96 clones were screened for growth rate dependence on the presence or absence of pPRO-Phe, and eight candidate clones were identified and sequenced. The polynucleotide and amino acid sequences of the eight clones is also provided in SEQ ID NOS: 4 through 19. […]

B1: pPRO-PheRS-1: para-propargyloxyphenylalanine aminoacyl-tRNA synthetase isolate-1, derived from wild-type Methanococcus jannaschii tyrosyl tRNA-synthetase (protein)
chain: MDEFEMIKRNTSEIISEEELREVLKKDEKSAAIGFEPSGKIHLGHYLQIKKMIDLQNAGFDIIILLADLHAYLNQKGELDEIRKIGDYNKKVFEAMGLKAKYVYGSPFQFDKDYTLNVYRLALKTTLKRARRSMELIAREDENPKVAEVIYPIMQVNAIHYAGVDVAVGGMEQRKIHMLARELLPKKVVCIHNPVLTGLDGEGKMSSSKGNFIAVDDSPEEIRAKIKKAYCPAGVVEGNPIMEIAKYFLEYPLTIKRPEKFGGDLTVNSYEELESLFKNKELHPMDLKNAVAEELIKILEPIRKRL
modifications: para-propargyloxyphenylalanine aminoacyl-tRNA synthetase derived from M. jannaschii tyrosyl tRNA-synthetase
notes: para-propargyloxyphenylalanine aminoacyl-tRNA synthetase isolate-1, derived from wild-type Methanococcus jannaschii tyrosyl tRNA-synthetase
Turning to B1, the “chloramphenicol resistance on E. coli, IC50” value runs as follows: (in the absence of pPRO-Phe) 5 µg/mL; (in the presence of pPRO-Phe) 110 µg/mL.
